Experiments:
HLA-A*01:01 = test: IEDB peptide-MHC binding, purified MHC/competitive/fluorescence; filed as Kd, often an IC50 or EC50 that approximates it; ≥ and ≤ were set here for values at or beyond the usual limits of such assays; conditions: source organism: Bacillus anthracis str. A0488
HLA-B*35:01 = test: as above; conditions: source organism: Bacillus anthracis str. A0488
HLA-A*02:01 = test: as above; conditions: source organism: Giardia lamblia ATCC 50803
HLA-A*02:03 = test: as above; conditions: source organism: Giardia lamblia ATCC 50803
HLA-A*02:11 = test: as above; conditions: source organism: Giardia lamblia ATCC 50803
HLA-A*02:12 = test: as above; conditions: source organism: Giardia lamblia ATCC 50803
HLA-A*02:16 = test: as above; conditions: source organism: Giardia lamblia ATCC 50803
HLA-A*02:19 = test: as above; conditions: source organism: Giardia lamblia ATCC 50803
HLA-A*03:01 = test: as above; conditions: source organism: Giardia lamblia ATCC 50803
HLA-A*23:01 = test: as above; conditions: source organism: Giardia lamblia ATCC 50803
HLA-A*24:03 = test: as above; conditions: source organism: Giardia lamblia ATCC 50803
HLA-A*26:01 = test: as above; conditions: source organism: Giardia lamblia ATCC 50803
HLA-A*29:02 = test: as above; conditions: source organism: Giardia lamblia ATCC 50803
HLA-A*68:02 = test: as above; conditions: source organism: Giardia lamblia ATCC 50803
HLA-A*69:01 = test: as above; conditions: source organism: Giardia lamblia ATCC 50803
HLA-B*15:01 = test: as above; conditions: source organism: Giardia lamblia ATCC 50803
HLA-B*15:17 = test: as above; conditions: source organism: Giardia lamblia ATCC 50803
HLA-B*18:01 = test: as above; conditions: source organism: Giardia lamblia ATCC 50803
HLA-B*27:03 = test: as above; conditions: source organism: Giardia lamblia ATCC 50803
HLA-B*39:01 = test: as above; conditions: source organism: Giardia lamblia ATCC 50803
HLA-B*46:01 = test: as above; conditions: source organism: Giardia lamblia ATCC 50803
HLA-B*51:01 = test: as above; conditions: source organism: Giardia lamblia ATCC 50803
HLA-B*57:01 = test: as above; conditions: source organism: Giardia lamblia ATCC 50803
HLA-B*08:01 = test: IEDB peptide-MHC binding, purified MHC/competitive/fluorescence; ≥ and ≤ were set here for values at or beyond the usual limits of such assays; conditions: source organism: Vaccinia virus WR

Sequence: SASLAALFY
- Kd (HLA-A*01:01): 0.0281 µM
- Kd (HLA-B*35:01): 0.0002 µM

Sequence: TEDDWITYI
- Kd (HLA-A*02:01): ≥ 20 µM
- Kd (HLA-A*02:03): ≥ 20 µM
- Kd (HLA-A*02:11): ≥ 20 µM
- Kd (HLA-A*02:12): ≥ 20 µM
- Kd (HLA-A*02:16): 0.402 µM
- Kd (HLA-A*02:19): ≥ 20 µM
- Kd (HLA-A*03:01): ≥ 20 µM
- Kd (HLA-A*23:01): ≥ 20 µM
- Kd (HLA-A*24:03): ≥ 20 µM
- Kd (HLA-A*26:01): ≥ 20 µM
- Kd (HLA-A*29:02): ≥ 20 µM
- Kd (HLA-A*68:02): ≥ 20 µM
- Kd (HLA-A*69:01): ≥ 20 µM
- Kd (HLA-B*15:01): ≥ 20 µM
- Kd (HLA-B*15:17): ≥ 20 µM
- Kd (HLA-B*18:01): ≥ 20 µM
- Kd (HLA-B*27:03): ≥ 20 µM
- Kd (HLA-B*39:01): ≥ 20 µM
- Kd (HLA-B*46:01): ≥ 20 µM
- Kd (HLA-B*51:01): ≥ 20 µM
- Kd (HLA-B*57:01): ≥ 20 µM

Sequence: TRVLKPSVI
- IC50 (HLA-B*08:01): ≥ 187 µM
